# Results published in the DeepSol protein solubility set.
# Assay: soluble on expression in E. coli; label from the status in PepcDB or PDB records
row,Sequence,soluble on expression in E. coli
1,MIQLKNVGITLSGKGYERFSLENINLEVNGEKVIILGPNGSGKTTLLRAISGLLPYSGNIFINGMEVRKIRNYIRYSTNLPEAYEIGVTVNDIVYLYEELKGLDRDLFLEMLKALKLGEEILRRKLYKLSAGQSVLVRTSLALASQPEIVGLDEPFENVDAARRHVISRYIKEYGKEGILVTHELDMLNLYKEYKAYFLVGNRLQGPISVSELLESSIVEGERNDALLVLDIMDKKVSIVKGDLGMKFGALGSLNRIYGIIGA,soluble
2,SLKPFQDKNTFFYKSPSYICDSEISVACKKGKKVDFPNQDDFTIIQTNDWILIMVFDGHGPSGHDISNFVHVVLPLLFSYNIEKIYENPVRTMKTLFYMINCYLVNYSYCINNNINPININFIDYNLSGTTCTIILYNFITKKIYSAHTGDSRAVMGKQNPQTNKFSAYNITEDHKPSLKLEKDRILAFGGEVKKLHGDVAYRVFVKDEMYPGLAMSRAIGDITSSFIGVTCEPTIKILDKLEEDKFIIVATDGIWEFISSEECVQMVSKKKKKKVHIAMEEIIKESWRRWARIDTVDDMTLVILYF,not soluble
3,MTARDDETIAFYSGHATAYTSRGQAPDRPHLETFLARLRAGAKILELGCGGGQDSEYMLSAGFDVHPTDGTPDIAKAAQARLGIPVRTLLFENIEDAALYDAVWANACLLHVPRLALPGIIGRIHTALKPGGVFYASFKAGEVEGRDTFGRYYNYPSKAWLEETYGQFAWTEVEIEARQGSGYDKLPTDWLHVTATKA,soluble
4,MTTPKTFVPELLSPAGSLKNMRYAFAYGADAVYAGQPRYSLRVRNNEFNHENLQIGINEAHALGKKFYVVCNIQPHNSKLKTFIRDLKPVIDMGPDALIMSDPGLIMMVREEFPHMPIHLSVQANAVNWATVKFWASQGVERVIVSRELSLEEIEEIREKCPNTEIEVFVHGALCMAYSGRCLLSGYINKRDPNQGTCTNACRWEYKVEAAKEDEAGQIVEQFDPNAAQAIEVQNERPDTTIGAGKPIDDVVLLSESHRPDEKMAAFEDEHGTYIMNSKDLRAVQHVERLTQMGVHSLKIEGRTKSFYYCARTAQVYRKAIDDAVAGKPFDDSLMTTLESLAHRGYTEGFLRRHTHDAYQNYDYGYSVSDTQQFVGEFTGKRRGAMAEVEVKNKFVLGDSLELMTPKGNVIFTLEAMENRKGEATDDAKGNGHFVYIPVPEELDLSYALLMRNLVQGQDTRNPTGK,not soluble
5,MQSTIRKQLLQVFSEADGEFVSGQTISDKLGCSRTAVWKHMEDLRNEGYELEAVRRLGYRIASKPDKVTANEIQLGLQTKHIGRTVYFEESVESTQHIAAKLAYEGAEEGTIVVAEEQTAGRGRLSRKWHSPKGTGIWMSIILRPSIPVHHAPQLTLLAAVSVAQAIEKCTGVNVGIKWPNDILIQGKKAVGILTEMQADPDKINAVIMGIGINANQKQEHFDEEIQHIATSLAIESGKPIVRAELMQQIFLQLEKLYEEYLQNGFSVIKILWESYAVSIGKEINARTMRETITGVAKGITEDGVLLLEDHEGKVHHIHSADIEIK,not soluble
6,MDGVHDLAGVQGFGKVPHTVNADIGPTFHAEWEHLPYSLMFAGVAELGAFSVDEVRYVVERMEPRHYMMTPFYERYVIGVATLMVEKGILTQDELESLAGGPFPLSRPSESEGRPAPVETTTFEVGQRVRVRDEYVPGHIRMPAYCRGRVGTISHRTTEKWPFPDAIGHGRNDAGEEPTYHVKFAAEELFGSDTDGGSVVVDLFEGYLEPAA,soluble
7,MGSSHHHHHHSSGLVPRGSHMASMTGGQQMGRGSMIIDDLLTKKIIKPRPLNSHKGTFGRVLLIGGNYPYGGAIIMAALACVNSGAGLVTVATHKDNITALHSHLPEAMAFDMVEKDRLSEQITAADVVLMGPGLAEDDLAQTTFDVVWQAIEPKQTLIIDGSAINLLAKRKPAIWPTKQIILTPHQKEWERLSGLTIPEQIEAATQTALAHFPKETILVAKSHQTKIYQGQKIGHIQVGGPYQATGGMGDTLAGMIAGFVAQFHTDRFEVAAAAVFLHSYIADQLSKEAYVVLPTRISAEITRVMKEMSE,soluble
8,MGSDKIHHHHHHMALPEFKIAQLRHFVWVAELKGFHTAAEKACRTQPAISLSIRDLENKLSTILFEKRNAKTSNTELTPFGQYFLPKAKELIAHHDNVAQDMALMSEHKTGHLRLASVPSIACRMLPELLSKFIADVPELHISFYDDNSEAVLRKVEKQQVDIGIASLPHGHEHADITFTPIWEDQLGVVCREDHPFAEMTELHWKELRKQRLIRNGTSRLLEDTEAEPLLSDSQFLISNMLSLIAMLEEGLGITTLPWFAFPKNNSKLRFIPLTTPKIVRHIGIVQLKNKSLSPAAEALANFILKNTNQKKTSDLNPE,not soluble
9,MGSDKIHHHHHHMAETIETMGGQAALDHVSRLLSLKVDIRGLEHLPAEGRVVIVANHPTGIGDGVAVYDALKTHRPDIVFYANADAHRVCPRFDDVLIPVEWVEEKRSRERMRLTLSMTREAMEAERALMIFPAGRLAVTDAEGRLSDPPWMSSAVSIARKYGAPIAPIHLEGPWSTLFHLFGRLSRELRDITLFHELLNKTGRRFSLTIGPPVDPEALPRDAEQATEVLKRYVERQLPNEPTSPLT,not soluble
10,GPEQAMYSFMTYYIAMKTIDAVIQGLDETKAVIIVSEQYDEISDAILHRLGRGTTKLKGKGGYTDEEKDVIYAVVTRLEVTKLKSIVFEVDQNAFITIMNTHETRGGKFKNAIH,not soluble
11,MSLSDPIKIGFLAPLTGPVSSWGLPGLHGCRLWEDWLNRAGGILVGGRRYPVSIVPFDCGYDPERAMEGARHLVHTEQVKLLMMLGGDTFTPLRGFLTANKVLTSTLLPSDLSPDTRYLIAPSEVHPIYNVTGVDWLARNRPELRRVAMCSQKDALGLPSIATYRAAFEAAGVPVVKEVEYDPEMTDVATIVQPMLDAQPDVLCWCTSYTPMVHAMTEYAHAKGFSGQILSCTLDNYQRLVARTSAEFMEGALFQFPDFDDPKLARKAFFFNRPSTFFKEYNARYPGNWSAVSWEYVAILDIWHAAVEKVASVHPVSVLATMKQMDPVTHAFGPARWWGEGHHHHHH,not soluble
12,MVCLESDTCQSSQLLNTSFKRGFFSNLYPMIKRTAVERCPLFSVETGFYLKAPGILFVIERKKKQMNHETIQKLQFTTILKEVQTRAIGEYSKERLAKMVPATRLETVQSRLTETTEARLIIDSGQHVPFMGLSQITRLLQQVKKGLILTPNELIEVADFLRSSQRIQKFFEKNQYQTPRLFSYSQHLADFRAIEEQIYTKIHNQKVATDASRQLRKIRRQINECQQEIETKVTKFLRNKNNQLYIQENMMVKKGEHYTVPIKASYKNKVSGTIIEQSNKGQTVFIEPVAISKLNEQLTLLKAEETAEEYQILAELTGLINEQERLVDQAVDTMTTLDIIFARGKYSREIGGITPKVNKEERLRIVQGKHPLLLEHAVPLTFSLGAEYRGLVITGANAGGKTVVLKTVGLLTVMTQFGLQIPAQAGTEIPVLDEIFVDIGDQQNLENALSTFSGHMKNIAEMLRNVKRHTLVLLDEIGSGTEPNEGAGLAIAIMETMYQKGALVVATTHYGEIKRFAQEHDDFVPAAMAFDRETLTPKYQLKIGEVGDSQALWIARKMKMEPQLIEKAAHYIQRKEYPTNRSLFKPLKAKETTFATFVEETHRYQKGDRVLLTETQQIGLVFTDEGEQEIQVFVNDKIENVPRRRLKLQAKAQDLYPQDYDLESLFTDFHERKKLKDIERGSKKAQKQLRKEAEKRAARRDK,not soluble
13,MKSLITAGLVFSLIASSYSAQAEEKQSGDLAADIGAVGIPVIAGSIALYKEDYDGFWMFAKGATYTLAATQALKYTVKEERPNGEDNLSFPSGHSSSAFQGASYLQFRYGWEYGVPAYIGASLVGYSRVENEHHYWRDVIAGAVLATTIQYLVTDKYLDSNSVMIAPVINDDHVGIAASFSF,not soluble
14,MACLTDLVNLNLSDTTEKIIAEYIWIGGSGMDLRSKARTLPGPVTDPSKLPKWNYDGSSTGQAPGEDSEVILYPQAIFKDPFRRGNNILVMCDCYTPAGEPIPTNKRYSAAKIFSSPEVAAEEPWYGIEQEYTLLQKDTNWPLGWPIGGFPGPQGPYYCGIGAEKSFGRDIVDAHYKACLYAGINISGINGEVMPGQWEFQVGPSVGISSGDQVWVARYILERITEIAGVVVTFDPKPIPGDWNGAGAHTNYSTESMRKEGGYEVIKAAIEKLKLRHKEHIAAYGEGNERRLTGRHETADINTFSWGVANRGASVRVGRETEQNGKGYFEDRRPASNMDPYVVTSMIAETTIVWKP,soluble
15,MNQAIQFPDREEWDENKKCVCFPALVNGMQLTCAISGESLAYRFTGDTPEQWLASFRQHRWDLEEEAENLIQEQSEDDQGWVWLP,not soluble
16,MSIAQEFEKANTHYSSNFTKRDLPLPPARKVAVVICMDARIDPAASLGLTEGDAHVIRNAGGRASDALRSVIISQRLLGTREIVVVHHTDCGMLTFSDNDLRGIVAKETGHNVDHFAFLPFGDLEKSVKDDVEFFKRNPLVLDVPVTGYIYDVKSGAINKVDS,soluble
17,MTTDLITVKQVTKTYGSKNKEIAALKDISLAIPKGTTLGIIGESGSGKTTLGKLIAGIESPTSGEIDYNGQVVHKLKAAHKRDFLQKVQFIFQDSTAALNPRWKVRDSVTEGYISFGLGDKGLKDKVAGDALERVGLDRRYINRYPHEFSGGQRQRIAIARALLCEPEVLILDEPISALDVSLQIQIVHLLQKIQREQGYTYLFIAHDLPMVHYLCEKVAVLYKGELVEFGNTDEVFRNPQHSYTKTLLASTPKISG,not soluble
18,MSRTVIRAQPFFLQAAPGSREQLANPRGFTTFVLEASWSTGLRLDTYVTRGLGDPEQIMREEFQGQYVFWDTDEYLDLIRWMRHYNVSHPGRPTLRFVGNDLGYPGPEAFDQVTSYVTAHRPGVAERIATLYAGLRPARSASAGAWMGQQLTKDLASRRAEAARAERALTLLCASGRPRGSAGRAYNWAVQNATAVAQSFTGYAFPDEEFPERMRYRDQAMADNTAWWLAHTNGRILLASNNGHVAYTSDNPQEFPEPVGAFLRKKLGRKYVSVGLTFSEGSLNALPDFTAGQPQKYAVDPAPAGHNEHTLDQVRHRDFALDLRTAPPAARAWLDTARPTRSYGLYWSDQDPETALGRSYDIVIHLHRVEAARLWAFTSVKDGQSYRLEHHHHHH,not soluble
19,MDIKIIKDKKNPLLNRRELDFIVKYEGSTPSRNDVRNKLAAMLNAPLELLVIQRIKTEYGMQESKGYAKLYEDADRMKQVEQEYVLKRNAVPGSETEGEEALEHHHHHH,soluble
20,MEPRVTQRKRPLDGCMGKITGITSDILKYDHKCFKLSLPAKFPEVCGSDEVFPDPDLLHVLPVAGSLQQSIDQCCLQLESLCRPGLLCAHPTLLFKLHSSMKNRPFFSLIYTYVKKTQQVRKRDRKPRGQVAAGPNPTSVMLEHHHHHH,soluble
21,SETILEQQRRYHEEKERLMDVMAKEMLTKKSTLRDQINSDHRTRAMQDRYMEVSGNLRDLYDDKDGLRKEELNAISGPNEFAEFYNRLKQIKEFHRKHPNEICVPMSVEFEELLKARENPSEEAQNLVEFTDEEGYGRYLDLHDCYLKYINLKASEKLDYITYLSIFDQLFDIPKERKNAEYKRYLEMLLEYLQDYTDRVKPLQDQNELFGKIQAEFEKKWENGTFPGWPKETSSALTHAGAHLDLSAFSSWEELASLGLDRLKSALLALGLKCGGTLEERAQRLFSTKGKSLESLDTSLFAKNPKSKGTKRDTERNKDIAFLEAQIYEYVEILGEQRHLTHENVQRKQARTGEEREEEEEEQISESESEDEENEIIYNPKNLPLGWDGKPIPYWLYKLHGLNINYNCEICGNYTYRGPKAFQRHFAEWRHAHGMRCLGIPNTAHFANVTQIEDAVSLWAKLKLQKASERWQPDTEEEYEDSSGNVVNKKTYEDLKRQGLL,soluble
22,MKYKSVFDIIGPVMVGPSSSHTAGAVRIGLVARKLFGRKPTWARISFYGSFAETYRGHGTDVAIVAGLLGFDTFDERLPNALEIAQAEGVDVSFSAEEAIPHHPNTARLRIGDDEGELELVGISIGGGKIEIVELNGFALKLSGHHPALLIMHNDRYGTIGAVASVLAKRKINIGHMEVSRKEKGKEALMAIEVDQPLTDDLIQELEQLPNIIQVAKLAD,not soluble
